Test: yeast display, Sf9 membrane polyspecificity reagent, FACS + sequencing; frameworks hold sequencing errors
Summary of the method: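 Nanobodies from a synthetic yeast display library (Saccharomyces cerevisiae BJ5465), induced 36–48 hours with galactose, were stained 1 hour at 4 °C with 10% biotinylated, detergent-solubilized Sf9 membrane reagent, enriched on streptavidin microbeads, then FACS-sorted. Anti-HA (expression) and streptavidin (reagent binding) fluorescence set low and high (top ~1%) gates. Polyreactivity labels come from the gate of origin. Genes were colony-PCR amplified, MiSeq 2 × 250 sequenced and filtered by CDR length.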

Sequence	polyreactivity (PSR sort gate)
QVHLVESGGGLVQAGGSLRLSSAASGITFGWYAMGWYRQAPGKERELVAAIDRGGSTYYADSVKGRFTISRDNAKITVYLQMNSLKPEDTAVYYCAVELRLRYGYDYWGQGTEVTVSS	high polyreactivity
QVQLVESGGGLVQAGGSLRLSCAASGRIFYYNTMGWYRQAPGKERELVAAITRSGGSTYYADSVKGRFTISRDNAKNTVYLQMNSLKPEDTAVYYCAAQRRYDTADHGYWGQGTQVTVSS	high polyreactivity
QVQLVESGGGLVQAGGSLRLSCAASGSIFQSYAMGWYRQAPGKERELVAGISSDGSTYYADSVKGRFTISRDNAKNTVYLQMNSLKPEDTAVYYCAAERWGNPTDYQFWRPYDYWGQGTQVTVSS	low polyreactivity
QVQLVESGGGLVQAGGSLRLSCAASGFTFAYYAMGWYRQAPGKERELVAAISWTGGSTYYADSVKGRFTISRDNAKNTVYLQMNSLKPEDTAVYYCAARGYRYRSYDYWGQGTQVTVSS	high polyreactivity
QVQLVESGGGLVQAGGSLRLSCAASGSIFIYYAMGWYRQAPGKERELVATISSDDRTNYTDSVKGRFTISRDNAKNTVYLQMNSLKPEDTAVYYCAADRYWAGRDGPEYDYWGQGTQVTVSS	low polyreactivity
QVQLVESGGGLVQAGGSLRLSSAASGSIFQYYTMGWYRQAPGKERELVASISSDGSTYYADSVKGRFTISRDNAKNTVYLQMNSLKPEDTAVYYCADVLWEPPVHPGYDYWGQGTQVTVSS	low polyreactivity
QVQLVESGGGLVQAGGSLRLSCAASGRTFLTYAMGWYRQAPGKERELVAAISSSGVRTYYADSVKGRFTISRDNAKNTVYLQMNSLKPEDTAVYYCAAVGTGSSLRYDYWGQGSQVTVSS	high polyreactivity
QVQLVESGGGLVQAGGSLRLSCAASGRIFTPNAMGWYRQAPGKERELVAAISRSGGSTYYADSVKGRFTISRDTAKNTVYLQMKSLKPEDTAVDYCNKLRTPSSGLDYWGQGTQVTVSS	high polyreactivity
QVQLVESGGGLVQAGGSLRLSCAASGFTFVYYAMGWYRQAPGKERELVAAISRSGGSTYYADSVKGRFTISRDNAKNTVNLQMNSLKPEDTAVYYCAARKTYGSRLSYEYWGQGTQVTVSS	high polyreactivity
QVHLVESGGGLVQAGGSLRLSCAASGFIFDPYGMGWYRQAPGKERELVAAISSRVGSTYYADSVKGRFTISRDNAKNTVYLQLNSLKPEDTAVYYCAADNDGVGYWVYEEMDYWGQGTQVTVSS	low polyreactivity
QVQLVESGGGLVQAGGSLRLSCAASGIIFRRYAMGWYRQAPGKERELVAAITRGGITYYADSVKGRFTISRDNAKNTVYLQMNSLKPEDTAVYYCAATYSGTYSLGRGYDYWGQGTQVTVSS	low polyreactivity
QVQLVESGGGLVQAGGSLRLSCAASGRTFYTNAMGWYRQAPGKERELVAAITGDGTSTYYADSVKGRFTISRDNAKNTVYLEMNSLKPEDTAVYYCNATLPDYWPYYYYQGGDDYWGQGTQVTVSS	low polyreactivity
QVQLVESGGGIVQAGGSLRLSCAASGNIFPYYDMGWYRPAPGKERELVAAITSSASGTYYADSVKGRFTISRDNAKNTVYLQMNSLKPEDTAVYYCAAGVFFFTFDYWGQGTQVTVSS	low polyreactivity
QVQLVETGGGLVQAGGRLRLSCAASGRILPGNAMGWSRQAPGKERELVAAISSGGRTNYADSVKGRFTISRDNAKNTVYLQMNSLKPEESAVYYCAKRTVWWSNWHYYPPTYNYWGQGTQVTVSS	high polyreactivity
QVQHVESGGGLVQAGGSLRLSCAASRFIFVTYAMGCYIQAPGKERELVAAITNSGGTTYYADSVKGRFTISRDNAKNTVYLQMNSLKPEDTAVYYCNKPYGAETAHREFDYWGQGTQVTVSS	low polyreactivity
QVQLVESGGGLVQAGGSLRLSCAASGFIFRFYAMGWYRQAPGKERELVATISKRGGTTYYADSVKGRFTISRDNAKNTVYLQMNSLKPEDTAVYYCAVRLYLEMDYWGQGTQVTVSS	high polyreactivity
QVQLVESGGGLVQAGGSLRLSCAASGSTFWGYAMGWYRQAPGKERELVATINQSAGSTYYADSVKGRFTISRDYAKNTVYLQMNSLKPEDTAVYYCAAEARVQFSYDYWGQGTQVTVSS	low polyreactivity
QVQLVESGGGLVQAGGSLRLSCAASGRTFHPYAMGWYRQAPGKERELVAAITISTNYADSVKGRFTISRDNAKNTVSLQMNSVKPEDTAVYYCNADFVRPSWARGRNNGLYYWGQGTQVTVSS	low polyreactivity
QVQLVESGGGLVQAGGSLRLSCAASGFTFGYYGMGWYRQATGKEMELVAAIDCSGASTYYADSVKGRFTISRDNAKNTVDLQINSLKPEDSAVYYCNADRYLYSLYTYEYDYWGHGTQVTVSS	low polyreactivity
QVQLVESGGGLVQAGGSLRLSCAASGRTFYPYAMGWYRQAPGKERELVAAISSGGSTTYADSVKGRFTISRDNAKNTVYLQMNSLKPEDTAVYYCAVYGTERLAFDYWGQGTQVTVSS	low polyreactivity
QVQLVESGGGIVQAGGSLRLSCAASGRIIGYYAMGWYIQAPGKERELVARISSSGGSTYYADSVKGRFTISRDNAKNTVYLQMNSLKPEVTAVYYCNTASNRFPGWRAEFDYWGQGTQVTVSS	low polyreactivity
QVQLVESGGGLVQAGGSLRLSCAASGSTFYNYAMGWYRQAPGKERELVAAISSGGGITYYADSVKGRFTISRDNAKNTVYLQMNSLKPEDTAVYYCNVVNYYPKGNNRAQYWFNYWGQGTQVNVSS	high polyreactivity

Sequence	polyreactivity (PSR sort gate)
QVQLVESGGGLVQAGGSLRLSCAASGSIFGPYAMGWYRQAPGKERELVAAITWSGDSTYYADSVKGRFTISRDNAKNTVYLQMNSLKPEDTAVYYCAAETFIWGQGTQVTVSS	low polyreactivity
QVKLVESGGGLVQAVGSLRLSCAPSGFTLGSYAMGCYRQAPGKESELVAAITYSGSRTYYADSVKGRFTISRDNAKNTVYLQMNSLKPEDTAVYYCAAVTHYGFDYWGQGTQVTVSS	high polyreactivity
QVQLEETGGGLVQAGGSLRLSCAASGRIFWWYAMGWYRQAPGKERELVAVIDDSGGITYYADSVKGRFTISRDNAKNTVYLQMNSLKPEDTAVYYCARNVNAQKVLAGFDYWGQGTQVTVSS	low polyreactivity
QVQLVESGGGLVQARGSLRLSCAASGFTFAFYAMGWYRQAPGKEMELVAAITGSGGSTYDADSVKGRFTISRDNAKNTVYLQLNSLKPEDTAVYYCFTRGGYYLYYSYYYWGQGTQVTVSS	high polyreactivity
QDQLVESAGGLVQAGGSLSLSCAASGNIFVYYAMGWYRQAPGKERELVAAITSDVSTYYADSVKGRFTISRDNAKNTVYLQMNSLKPEDTAVYYCATTGYGSYVIYGGQGTQVTVSS	low polyreactivity
QVQLVESGGGLVQAGGSLRLSCAASGSTLRWNAMGWYRQAPGKERELVAAITYSGGSTYYADSVKGRFTISRDNAKNTVYLQMNSLKPEDTAVYYCAADSYRYRPGYGPVLYDYWGQGTQVTVSS	high polyreactivity
QVQLVESGGVLVQAGGSLRLSCAASGYIFQTYAMGWYRPAPGKEREFVAAISFIGSSTRYADSVKGRFTISRDNAKNTVYLQMNSLKPEDTAVYYCNNDTITSTWTPYTSWFGYWGQGTQVTVSS	high polyreactivity
QVQLVESGGGLVQAGGSLRLSCSASGITFGRNTKGWYRQAPGKERELVAASDSGGNTYADSVKGRFTISRDNAKNTVYLQMNSLKPEDTAVYYCAVDGGEFSSYGYWGQGTQVTVSS	low polyreactivity
QVQLVESGGGLVQAGGSLRLSCAASGRTFGQNTMGWYRQAPGIERELVAAINWSGGSTYYADSVKGRFTISRDNAKNTVYLQMNSLKPEDTAVYYCAVRGYWGQGTQVTVSS	low polyreactivity
QVQLVESGGGLVQAGGSLRLSCAASGSIFKQNDMGWYRHAPGKERELVAAITYTGGSTYYADSVKGRFTISRDNAKNTVYLQMNSLKPEDTAVYYCAARITSPRARSRGFYYWGQGTQVTVSS	high polyreactivity
QVQLVESGGGLVQAGGSLRLSCAASGSISTPYTMGWYRQAPGKERELVAAISWIGDTTSYADSVKGRFTISRDNAKNTVYLQMHSLKPEETAVYYCNAEHRGYDYWGQGTQVTVSS	low polyreactivity
QVQLVETGGGLVQAGGSLRLSCAASGSIFYYNTMGWYRQAPGKERELVAAISRSGTSTFYADSVKGRFTISRHNAKNTVYLQMNSLKPEDTAVYYCNAESLGWYRLYTVDYWGQGTQVTVSS	low polyreactivity
QVKLVESGGGLVQAGGSLRLSCADSGSIFWTYAIVWYRHAPGKERELVAAINSSDGTYYADSVKGRFTISRDNAKNTVYLQMNSLKPEDTAVYYCNADRDALFGYDYDYWGQGTQVTVSS	low polyreactivity
QVQLVESGGGLVQAGGSLSLSCAASGITFDYYAMGWYRQAPGKERELVAAISGRGTSTYYADSVKGRFTLSRDNAKNTVYLQLNSLKPEDTAVYYCAADPAAQREQSFLCRRGPGYDYWGQGTQVTVSS	low polyreactivity
QVQLVESGGGLVQAGGSLRLSCAASGFIFRYYAMGWYRQAPGKERELVAAITSRGSSTYYADSVKGRFTISRDNAKNTVYLQMNSLKPDDTAVYYCAARLRGDYVRYDYWGQGTQVTVSS	high polyreactivity
QVQLVESGGGLVQAGGSLRLSCAASGFTFQKYAMGWYRQAPGKERELVAAISSSGGRTYYADSVKGRFTISRDNAKNTVYLQMNSLKPEDTAVYYCNAVPGYVYYYQYWGQGTQVTVSS	high polyreactivity
QVQLVESGGGLVQAGGSLRLSCAASGLIFYDNVMGWYRQAPVKEREFVAAITSIGGSTYYADSVKGRFTISRDNAKNTVYLQMNSLKPEDTAVYYCNVKSKYYSPNYDYWGQGTQVTVSS	low polyreactivity
QVQLVESGGGLVQAGGSLRLSCAASGSTFDSYAMGWYSQAPGKERELVAAITYSGGRTYYADSVKGRFTISRDNAKNTVYLQMNSLKPEDTAVYYCAATGVFRDEYWGQGTQVTVSS	low polyreactivity
QVQLVESGGRLVQAGGSLRLSCAASGSTFDENAMGWYRQAPGKERELVAAISRRGVSTYYADSVKGRFTISRDNEKNTVYLQMNSVKPEDTAVYYCARRYGGVGMYYWGQGTQVTVSS	high polyreactivity
QVQLVESGGGLVQAGGSLRLSCAASGSTFYGYGMGWYRQAPGKERELVAAITGSGDTTYYADSVKGRFTISRDNAKNSVYLQMNSLKPEDTAVYYCNARWHAEYDYWGQGTQVTVSS	low polyreactivity
QVQLQECGGGLVQAGGSLRLSCAASGNIFDADIMGWYRQAPGKERELVASVSDGGSTNYADSVKGRFTISRDNAKNTVYLQMNSLKPEDTAVYYCAAIVYPDILTYFDYDYDYFYWGQGTQVTVGS	low polyreactivity
